Test [1] deals with M44-modified Y NTAA target peptides (M44-Y-P2-peptide). As to the kind of experiment: encoding assay; P2 M.
For test [2], the target named is M44-modified P NTAA target peptides. Kind of test: encoding assay; P2 M.
The target of test [3] is M44-modified L NTAA target peptides (M44-L-P2-peptide). As to the kind of experiment: encoding assay; P2 M.
In test [4] the target is M44-modified V NTAA target peptides. Kind of test: encoding assay; P2 M.
In test [5] the target is M44-modified F NTAA target peptides (M44-F-P2-peptide). As to the kind of experiment: encoding assay; P2 M.
Test [6] addresses M44-modified I NTAA target peptides (M44-I-P2-peptide). Kind of test: encoding assay; P2 M.
In test [7] the target is M44-modified N NTAA target peptides. As to the kind of experiment: encoding assay; P2 M.
Test [8] deals with M44-modified M NTAA target peptides. Kind of test: encoding assay; P2 M.
In test [9] the target is M44-modified E NTAA target peptides. As to the kind of experiment: encoding assay; P2 M.
In test [10] the target is M44-modified T NTAA target peptides. As to the kind of experiment: encoding assay; P2 M.
For test [11], the target named is M44-modified Y NTAA target peptides (M44-Y-P2-peptide). As to the kind of experiment: encoding assay; P2 S.
In test [12] the target is M44-modified P NTAA target peptides. As to the kind of experiment: encoding assay; P2 S.
For test [13], the target named is M44-modified H NTAA target peptides. Kind of test: encoding assay; P2 S.
The target in test [14] is M44-modified G NTAA target peptides (M44-G-P2-peptide). As to the kind of experiment: encoding assay; P2 S.
The target in test [15] is M44-modified L NTAA target peptides (M44-L-P2-peptide). As to the kind of experiment: encoding assay; P2 S.
Test [16] has as its target M44-modified V NTAA target peptides. As to the kind of experiment: encoding assay; P2 S.
Test [17] addresses M44-modified Q NTAA target peptides. Kind of test: encoding assay; P2 S.
The target of test [18] is M44-modified A NTAA target peptides (M44-A-P2-peptide). Kind of test: encoding assay; P2 S.
The target of test [19] is M44-modified F NTAA target peptides (M44-F-P2-peptide). As to the kind of experiment: encoding assay; P2 S.
Test [20] concerns the target M44-modified I NTAA target peptides (M44-I-P2-peptide). Kind of test: encoding assay; P2 S.
The target in test [21] is M44-modified M NTAA target peptides. As to the kind of experiment: encoding assay; P2 S.
Test [22] has as its target M44-modified T NTAA target peptides. As to the kind of experiment: encoding assay; P2 S.
The target in test [23] is M44-modified Y NTAA target peptides (M44-Y-P2-peptide). Kind of test: encoding assay; P2 N.
The target in test [24] is M44-modified M NTAA target peptides. Kind of test: encoding assay; P2 N.
Test [25] has as its target M17-modified V NTAA target peptides. Kind of test: encoding assay; P2 G.
Test [26] deals with M17-modified P NTAA target peptides. As to the kind of experiment: encoding assay; P2 G.
The target of test [27] is M17-modified N NTAA target peptides. As to the kind of experiment: encoding assay; P2 G.
The target of test [28] is M17-modified E NTAA target peptides. As to the kind of experiment: encoding assay; P2 P.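 Note: fraction of recording tags encoded.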
Test [29] has as its target M17-modified W NTAA target peptides. As to the kind of experiment: encoding assay; P2 P.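 Note: fraction of recording tags encoded.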
Test [30] deals with M17-modified Y NTAA target peptides (M17-Y-P2-peptide). As to the kind of experiment: encoding assay; P2 P.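 Note: fraction of recording tags encoded.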
Test [31] concerns the target M17-modified F NTAA target peptides. Kind of test: encoding assay; P2 P.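 Note: fraction of recording tags encoded.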
Test [32] addresses M17-modified S NTAA target peptides. As to the kind of experiment: encoding assay; P2 P.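 Note: fraction of recording tags encoded.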
The target of test [33] is M17-modified T NTAA target peptides. As to the kind of experiment: encoding assay; P2 P.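 Note: fraction of recording tags encoded.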
For test [34], the target named is M17-modified L NTAA target peptides. As to the kind of experiment: encoding assay; P2 P.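 Note: fraction of recording tags encoded.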
The target in test [35] is M17-modified D NTAA target peptides. Kind of test: encoding assay; P2 P.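 Note: fraction of recording tags encoded.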
Test [36] has as its target M17-modified V NTAA target peptides. As to the kind of experiment: encoding assay; P2 P.
In test [37] the target is M17-modified G NTAA target peptides. As to the kind of experiment: encoding assay; P2 P.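 Note: fraction of recording tags encoded.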
Test [38] concerns the target M17-modified P NTAA target peptides. As to the kind of experiment: encoding assay; P2 P.
The target of test [39] is M17-modified A NTAA target peptides. Kind of test: encoding assay; P2 P.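 Note: fraction of recording tags encoded.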
Test [40] has as its target M17-modified Q NTAA target peptides. As to the kind of experiment: encoding assay; P2 P.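 Note: fraction of recording tags encoded.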
For test [41], the target named is M17-modified I NTAA target peptides. As to the kind of experiment: encoding assay; P2 P.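 Note: fraction of recording tags encoded.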
Test [42] addresses M17-modified N NTAA target peptides. Kind of test: encoding assay; P2 P.
In test [43] the target is M17-modified M NTAA target peptides. As to the kind of experiment: encoding assay; P2 P.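 Note: fraction of recording tags encoded.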
Test [44] addresses M17-modified H NTAA target peptides. Kind of test: encoding assay; P2 P.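 Note: fraction of recording tags encoded.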
Test [45] addresses M44-modified H NTAA target peptides. As to the kind of experiment: encoding assay; P2 G.
The target in test [46] is M44-modified A NTAA target peptides (M44-A-P2-peptide). Kind of test: encoding assay; P2 G.
Test [47] addresses M44-modified S NTAA target peptides. Kind of test: encoding assay; P2 G.
Test [48] addresses M44-modified P NTAA target peptides. Kind of test: encoding assay; P2 P.
The target of test [49] is M44-modified W NTAA target peptides. As to the kind of experiment: encoding assay; P2 P.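 Note: fraction of recording tags encoded.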
For test [50], the target named is M44-modified G NTAA target peptides (M44-G-P2-peptide). As to the kind of experiment: encoding assay; P2 P.
Test [51] concerns the target M44-modified V NTAA target peptides. As to the kind of experiment: encoding assay; P2 P.
The target of test [52] is M44-modified T NTAA target peptides. As to the kind of experiment: encoding assay; P2 P.

Changes are numbered by the printed parent chain.

B1: engineered M44-L binder (SEQ ID NO: 21) (designed binder, not shown: small tags and cut ends; large carriers)
chain: QVSVQPNFQQDKFLGRWFYAGHASNSSWYREKVAALSMAKLVVAPATDGGLNATETFLRKNQCETITSLLQPAGSLGSYSSRSPHGGSTWSTSVVETDYDQYALLYLQGSKGPGEDFRGAILASRTQTPRAELKEKFTAFSKAQGFTEDTIVFLPQTDKCMTEQ
Turning to B1, the encoding yield in test [1] came out at 0.01; in test [2], 0.01; in [3], 0.02; in test [4], 0.01; in test [5], 0.02; in test [6], 0.1. Moreover, the encoding yield in test [7] is 0.01; in test [8] it was 0; in test [9], 0.01; in test [10], 0.02; in test [11] it was 0.04; in test [12], 0.01. Besides, the encoding yield came out at 0.01 in test [13]; 0.01 in test [14]; 0.27 in test [15]; 0.04 in test [16]; 0.01 in test [17]; 0.01 in test [18]. For the same molecule, the encoding yield was 0.07 in test [19]; 0.18 in test [20]; 0.07 in [21]; 0.01 in test [22]; 0.01 in test [23]; 0.02 in test [24].

B2: engineered M17-Y binder (SEQ ID NO: 61) (designed binder, not shown: small tags and cut ends; large carriers)
chain: TVPDRSEIAGKWYVVALASNTEFYLREKDWVKSAMARISFLGEDELKVSSAVPSPNGCYKVERTWKKTSDDGEVYNSRAAKLKVEVLDTDYKSYAVIYATRVKDGRTDHQMILYSRSPEVSPAATAIFRKLAGERNYTDEMVAMLPRQEECTVDEV
B2: the encoding yield in [25] was determined as 0.02; in test [26] it was 0.01; in [27] it was 0.01; in test [28], 0.02; in test [29], 0.02; in [30], 0.16. Besides, the encoding yield in test [31] amounted to 0.12; in [32], 0.02; in test [33] it was 0.01; in test [34] it was 0.05; in test [35], 0.02; in test [36] it was 0.02. Also, the encoding yield in test [37] came out at 0.01; in [38], 0.01; in [39], 0.02; in test [40], 0.02; in test [41], 0.06; in [42], 0.01. The encoding yield in test [43] and in [44] was 0.03 throughout.

B3: upgraded binder after additional maturation round (SEQ ID NO: 62) (designed binder, not shown: small tags and cut ends; large carriers)
chain: B2 chain with E27G, W30R, A36V, L41Q, G105R, E119D
As to B3, the encoding yield in test [25] is 0.03; in test [26], 0.02; in test [27] it was 0.01; in test [28], 0.02; in test [29] it was 0.11; in test [30], 0.28. Also, the encoding yield in test [31] is 0.12; in [32], 0.04; in [33], 0.02; in test [34], 0.08; in test [35], 0.03; in [36], 0.03. Also, the encoding yield stood at 0.02 in test [37]; 0.01 in test [38]; 0.02 in test [39]; 0.02 in [40]; 0.07 in [41]; 0.02 in [42]. Also, the encoding yield in test [43] stood at 0.03; in test [44] it was 0.04.

B4: engineered M44-L binder (SEQ ID NO: 31) (designed binder, not shown: small tags and cut ends; large carriers)
chain: QDSTQNLIPAPPLISVPLQPGFWTERFQGRWFLVGFAGNAVQKERQSRLTMQSLILELQEDNSYNITAINVRGQGCRYIISTLVPSSRPGQFTLGNIHSYPQIQSLDVQVADTDYDQFAMVFLQGTSENKQYFEVALAGRTKGLSDELKERFVSFAKSLGLKDNNIVFSVPTDQCIDN
Consider B4, for which the encoding yield in [1] was 0.03; in test [2] it was 0.02; in test [3], 0.19; in test [4], 0.03; in test [5] it was 0.07; in test [6] it was 0.17. Also, the encoding yield in [7] amounted to 0.02; in test [8], 0.02; in test [9], 0.03; in test [10], 0.05; in [11], 0.07; in test [12], 0.01. Besides, the encoding yield in test [13] was 0.03; in test [14] it was 0.04; in test [15], 0.15; in [16], 0.03; in test [17], 0.02; in test [18] it was 0.02. The encoding yield in test [19] turned out to be 0.06; in [20], 0.07; in [21], 0.07; in test [22], 0.03; in [23] it was 0.05; in [24], 0.02. Also, the encoding yield in test [45] turned out to be 0.02; in test [46], 0.01; in test [47] it was 0.01; in test [48], 0.01; in test [49], 0.04; in test [50] it was 0.01. In addition, the encoding yield in test [51] came out at 0.02; in [52] it was 0.01.

Source of the values: patent publication US20230220589A1.
